Patent US20040053296A1 (TAKARA BIO, published 2004)

Tests used:
[1] = target: T1, mucin box-deleted mutant of rat neutral ceramidase (delta-mucin CDase), C-terminal myc tag (rat, UniProt Q91XT9 1-761); test: lectin blot with HRP-labeled PNA lectin after immunoprecipitation from HEK293 lysate
T1 construct: Expressed in HEK293 cells, immunoprecipitated and blotted; also called Δmucin; Δmucin CDase; not shown: C-terminal Myc-His tag from vector pcDNA3.1/Myc-his(+)
Description: CDase was immunoprecipitated from the cell lysate of HEK293 cells prepared in Example 2, in which Δmucin or wild-type CDase was expressed, by using an anti-CDase antibody. A 100-fold dilution of anti-CDase was coupled with 10 μl of protein A-agarose (trade name, manufactured by SANTA CRUZ) in 100 μl of a reaction buffer (10 mM Tris-HCl, pH 7.5, containing 150 mM NaCl, 1% (v/v) Tritonm X-100 and 0.1% (w/v) BSA) at 4° C. for 2 hours. The product obtained was washed five times with the above reaction buffer. Thereafter, this product was mixed with a CDase sample, obtained by previously heating at 100° C. for 5 minutes in SDS sample buffer [20 mM Tris-HCl, pH 7.5, containing 1% (w/v) SDS and 1% (v/v) 2-mercaptoethanol], and incubated at 4° C. for 18 hours with gentle stirring. Subsequently, the immunoprecipitate was sedimented by centrifugation, washed five times with the above reaction buffer, suspended in 20 μl of the SDS sample buffer, and heated at 100° C. for 5 minutes. The resulting product was subjected to SDS-PAGE and Western blotting as described in Example 2. The PVDF membrane was stained with an anti-Myc antibody or an HRP-labeled PNA lectin. PNA (peanut agglutinin) lectin is a lectin capable of specifically recognizing and binding to the Galβ1,3GalNAc sequence of O-glycan.

[2] = target: T2, 94-kDa mouse neutral ceramidase from the soluble fraction of the liver, lacking the mucin box (mouse, UniProt Q9JHE3 75-756, limits assumed); test: lectin blot with HRP-labeled PNA lectin after immunoprecipitation from mouse liver soluble fraction
T2 construct: The whole entry is named here, and the true chain is shorter at the N-terminus; also called 94-kDa CDase; enzyme in the soluble fraction of the liver
T2 sequence (Q9JHE3 75-756 limits assumed): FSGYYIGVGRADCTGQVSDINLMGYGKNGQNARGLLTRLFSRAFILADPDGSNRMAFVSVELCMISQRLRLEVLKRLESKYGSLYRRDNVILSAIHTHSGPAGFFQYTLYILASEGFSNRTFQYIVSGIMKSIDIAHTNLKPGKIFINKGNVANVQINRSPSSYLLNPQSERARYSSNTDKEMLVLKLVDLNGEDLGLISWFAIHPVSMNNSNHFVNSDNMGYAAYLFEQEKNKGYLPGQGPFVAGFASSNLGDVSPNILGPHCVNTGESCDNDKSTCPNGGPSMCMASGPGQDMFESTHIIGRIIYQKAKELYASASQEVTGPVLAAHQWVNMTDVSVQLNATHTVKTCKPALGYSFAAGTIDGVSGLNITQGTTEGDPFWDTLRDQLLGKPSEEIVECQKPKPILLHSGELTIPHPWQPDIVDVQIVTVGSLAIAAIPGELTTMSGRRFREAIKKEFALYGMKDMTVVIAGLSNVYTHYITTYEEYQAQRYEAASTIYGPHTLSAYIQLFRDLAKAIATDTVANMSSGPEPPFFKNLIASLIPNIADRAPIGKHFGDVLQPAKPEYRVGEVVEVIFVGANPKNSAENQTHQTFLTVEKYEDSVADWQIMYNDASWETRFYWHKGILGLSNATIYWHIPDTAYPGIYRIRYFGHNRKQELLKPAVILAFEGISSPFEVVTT

T1 sequence (Q91XT9 other isoform, or with tags, fused parts or gaps mutant): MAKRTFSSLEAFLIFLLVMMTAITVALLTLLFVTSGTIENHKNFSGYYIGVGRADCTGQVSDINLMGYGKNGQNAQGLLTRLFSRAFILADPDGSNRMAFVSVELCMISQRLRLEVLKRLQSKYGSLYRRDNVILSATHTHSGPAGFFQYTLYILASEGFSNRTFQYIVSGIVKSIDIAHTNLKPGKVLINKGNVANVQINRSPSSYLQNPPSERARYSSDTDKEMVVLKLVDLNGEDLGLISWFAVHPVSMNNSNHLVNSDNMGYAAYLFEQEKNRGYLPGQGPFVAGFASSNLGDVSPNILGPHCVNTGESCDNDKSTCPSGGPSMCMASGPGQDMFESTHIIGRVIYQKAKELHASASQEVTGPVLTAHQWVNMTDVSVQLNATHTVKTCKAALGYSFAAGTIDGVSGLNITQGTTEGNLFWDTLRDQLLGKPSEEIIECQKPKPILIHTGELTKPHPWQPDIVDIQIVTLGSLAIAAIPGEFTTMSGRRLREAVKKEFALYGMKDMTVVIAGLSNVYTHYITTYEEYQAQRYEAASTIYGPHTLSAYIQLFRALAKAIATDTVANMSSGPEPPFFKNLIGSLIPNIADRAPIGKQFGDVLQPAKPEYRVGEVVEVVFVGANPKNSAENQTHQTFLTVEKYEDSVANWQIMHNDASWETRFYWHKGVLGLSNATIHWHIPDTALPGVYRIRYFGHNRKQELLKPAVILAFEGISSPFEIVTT

B1: HRP-labeled PNA lectin (peanut agglutinin) (other, UniProt P02872 24-259, looked up)
chain: AETVSFNFNSFSEGNPAINFQGDVTVLSNGNIQLTNLNKVNSVGRVLYAMPVRIWSSATGNVASFLTSFSFEMKDIKDYDPADGIIFFIAPEDTQIPAGSIGGGTLGVSDTKGAGHFVGVEFDTYSNSEYNDPPTDHVGIDVNSVDSVKTVPWNSVSGAVVKVTVIYDSSTKTLSVAVTNDNGDITTIAQVVDLKAKLPERVKFGFSASGSLGGRQIHLIRSWSFTSTLITTTRRS
modifications: HRP-labeled
notes: Lectin used as a blotting reagent; also called peanut lectin
- binding result [1]: no binding
- binding result [2]: no binding
